Residue numbers refer to the chain shown, from its start. Each block holds one binder with its values, some of them ahead of it.
Legend:
[1] = molecular target: human IL 12 protein (Recombinant His, C-terminus) (aa23-328) (LS-G134297-50: LSBio, Inc.) (human) (UniProt P29460); assay: SPR (Biacore 8K); affinity ratio with the original antibody as 1.0
[2] = molecular target: human IL 12 protein (Recombinant His, C-terminus) (aa23-328) (LS-G134297-50: LSBio, Inc.) (human) (UniProt P29460); assay: SPR (Biacore 8K), antigen immobilized on CM4 chip, antibody as analyte

human IL 12 protein (Recombinant His, C-terminus) (aa23-328) (LS-G134297-50: LSBio, Inc.) (human), sequence (P29460 23-328, form in doubt): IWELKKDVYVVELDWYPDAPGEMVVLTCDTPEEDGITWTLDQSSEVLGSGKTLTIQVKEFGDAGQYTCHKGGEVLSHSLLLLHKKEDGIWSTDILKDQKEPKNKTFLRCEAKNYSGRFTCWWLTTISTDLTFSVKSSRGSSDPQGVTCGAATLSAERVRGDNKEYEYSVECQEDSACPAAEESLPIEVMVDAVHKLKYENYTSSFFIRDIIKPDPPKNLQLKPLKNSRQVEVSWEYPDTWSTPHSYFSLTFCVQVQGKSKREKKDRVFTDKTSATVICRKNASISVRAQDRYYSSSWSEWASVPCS

KD ratio [1]: 1
Kd [2]: 10.3 nM
B1: mouse anti-human IL-12 antibody (clone 22-4), original (unmodified) (Fab, V domains shown, not shown: a dimerising Fc or GST)
VH: EVQLQESGPSLVKPSQTLSLTCSVTGDSITSGYWNWIRKFPGNKLEYMGYISYSGSTYYNPSLKSRISITRDTSKNQNYLQLNSVTTEDTATYYCARRDTTVVVPYYFDYWGQGTTLTVSS
VL: DIVMTQSHKFMSTSVGDRVSITCKASQDVGTAVAWYQQKPGQSPKLLIYWASTRHTGVPGRFTGSGSGTDFTLTINNVQSEDLADYFCQQYSSYPLTFGAGTKLELKR

KD ratio [1]: 20.8
Kd [2]: 0.497 nM
B2: R3 variant of anti-IL-12 antibody (clone 22-4) (Fab, V domains shown, not shown: a dimerising Fc or GST)
VH: B1 VH
VL: B1 VL with T63R, S65R, S67R

KD ratio [1]: 42.2
Kd [2]: 0.245 nM
B3: R4 variant of anti-IL-12 antibody (clone 22-4) (Fab, V domains shown, not shown: a dimerising Fc or GST)
VH: B1 VH
VL: B1 VL with T63R, S65R, S67R, D70R

From patent US20230091175A1
